According to US11542537B2, “High-purity steviol glycosides” (PureCircle Sdn Bhd, priority 2012, dated 2023):

Columns and labels:
Assay type in all cases: biochemical
[1] = Catalytic test of in-vitro expressed UDP-glucosyltransferases, Rebaudioside A to Rebaudioside D (HPLC CAD); conditions: 0.5 mM Rebaudioside A, 30° C., T24h sample; for Steviol glycoside conversion in reaction mixture: Reb A: remaining substrate; for Steviol glycoside conversion in reaction mixture: Reb UNK: Reb UNK later identified as reb D2
Procedure: 18 μL of plasmid solution (containing approximately 1.5 μg of plasmid) was used for in-vitro expression according to the Promega S30 T7 High-Yield Protein Expression System (ref: L1110) kit. The expression medium was produced as follows:
The prepared expression medium mix was added to the plasmid solution and the solution was allowed to incubate at 30° C. for 3 hours while mixing the mixture every 45 minutes. 5 μL of the mixture was frozen whereas the remainder was used for the catalytic test for the conversion of Rebaudioside A to Rebaudioside D.
(§1) 430 μL of a reaction mixture containing 0.5 mM Rebaudioside A, 3 mM MgCl2, 50 mM phosphate buffer (pH7.2) and 2.5 mM UDP-glucose was added to a 1.5 mL sterile microtube. 52 μL of the enzyme expression medium was added and the resulting mixture was allowed to react at 30° C. for 24 hours. 125 μL samples were taken after 2 hours, 16 hours and 24 hours and added to a 115 μL of 60% methanol and 10 μL of 2 N H2SO4. The quenched sample was centrifuged at 18,000 g for 2 minutes at RT. 200 μL was transferred to an HPLC vial and analyzed.
The HPLC assay was performed as follows:
as §1, with “RT.” for “RT. 200 μL was transferred to an HPLC vial and analyzed.”
The HPLC assay was performed as described in EXAMPLE 20.

[2] = LCMS of Rubusoside conversion products with UGTSL, UGTSL2, UGTLB; conditions: UGTSL2 2 hrs, UGTLB 5 hrs, UGTSL 45 hrs
Procedure: (§2) Conversion of stevioside with UGTSL and UGTSL2 was conducted in similar manner to Example 28, and the conversion of rubusoside with UGTSL and UGTSL2 was conducted similarly to Example 29. Conversions of rubusoside and stevioside with UGTLB was conducted similarly to Example 32.
(§3) The reaction mixtures were analyzed by LCMS to determine all reaction products.

[3] = LCMS of Stevioside conversion products with UGTSL, UGTSL2, UGTLB; conditions: UGTSL2 2 hrs, UGTLB 2 hrs, UGTSL 22 hrs
Procedure: as §2, §3

| Molecule | Steviol glycoside conversion in reaction mixture: Reb D [1] [% area] | Steviol glycoside conversion in reaction mixture: Reb A [1] [% area] | Steviol glycoside conversion in reaction mixture: Reb UNK [1] [% area] | other results |
| --- | --- | --- | --- | --- |
| S115N01 G2: UDP-glycosyltransferase, Avena strigosa, SEQ ID 4 (protein, listed as Avena strigosa) MAVKDEQQSPLHILLFPFLAPGHLIPIADMAALFASRGVRCTILTTPVNAAIIRSAVDRANDAFRGSDCPAIDISVVPFPDVGLPPGVENGNALTSPADRLKFFQAVAELREPFDRFLADNHPDAVVSDSFFHWSTDAAAEHGVPRLGFLGSSMFAGSCNESTLHNNPLETAADDPDALVSLPGLPHRVELRRSQMMDPKKRPDHWALLESVNAADQKSFGEVFNSFHELEPDYVEHYQTTLGRRTWLVGPVALASKDMAGRGSTSARSPDADSCLRWLDTKQPGSVVYVSFGTLIRFSPAELHELARGLDLSGKNFVWVLGRAGPDSSEWMPQGFADLITPRGDRGFIIRGWAPQMLILNHRALGGFVTHCGWNSTLESVSAGVPMVTWPRFADQFQNEKLIVEVLKVGVSIGAKDYGSGIENHDVIRGEVIAESIGKLMGSSEESDAIQRKAKDLGAEARSAVENGGSSYNDVGRLMDELMARRSSVKVGEDIIPTNDGL | 0.6 | 99.4 |  |  |
| UGTLB: Lycium barbarum UDP-glucosyltransferase GI_209954733, SEQ ID 10, E. coli lysate (protein, listed as Escherichia coli) MGTEVTVHKNTLRVLMFPWLAYGHISPFLNVAKKLVDRGFLIYLCSTAINLKSTIKKIPEKYSDSIQLIELHLPELPELPPHYHTTNGLPPHLNHTLQKALKMSKPNFSKILQNLKPDLVIYDLLQQWAEGVANEQNIPAVKLLTSGAAVLSYFFNLVKKPGVEFPFPAIYLRKNELEKMSELLAQSAKDKEPDGVDPFADGNMQVMLMSTSRIIEAKYIDYFSGLSNWKVVPVGPPVQDPIADDADEMELIDWLGKKDENSTVFVSFGSEYFLSKEDREEIAFGLELSNVNFIWVARFPKGEEQNLEDALPKGFLERIGDRGRVLDKFAPQPRILNHPSTGGFISHCGWNSVMESVDFGVPIIAMPIHLDQPMNARLIVELGVAVEIVRDDYGKIHREEIAEILKDVIAGKSGENLKAKMRDISKNLKSIRDEEMDTAAEELIQLCKNSPKLK |  |  |  | LC-MS, peak area ratio (%) Reb D [2]: 1.29%; LC-MS, peak area ratio (%) Reb E [2]: 9.21%; LC-MS, peak area ratio (%) Rub [2]: 13.49%; LC-MS, peak area ratio (%) Unknown peak #1 (MW804) RT 30.70 min [2]: 4.07%; LC-MS, peak area ratio (%) Unknown peak #2 (MW804) RT 49.50 min [2]: 66.67%; LC-MS, peak area ratio (%) Unknown peak #3 (MW804) RT 50.40 min [2]: 5.27%; LC-MS, peak area ratio (%) Reb E [3]: 3.12%; LC-MS, peak area ratio (%) Stev [3]: 43.11%; LC-MS, peak area ratio (%) Unknown peak #2 (MW966) RT = 26.50 min [3]: 53.78% |
| S115N01 A1: UDP-glucosyltransferase Os03g0702500, Oryza sativa Japonica Group, SEQ ID 3 (protein, listed as Oryza sativa) MDDAHSSQSPLHVVIFPWLAFGHLLPCLDLAERLAARGHRVSFVSTPRNLARLPPVRPELAELVDLVALPLPRVDGLPDGAEATSDVPFDKFELHRKAFDGLAAPFSAFLDTACAGGKRPDWVLADLMHHWVALASQERGVPCAMILPCSAAVVASSAPPTESSADQREAIVRSMGTAAPSFEAKRATEEFATEGASGVSIMTRYSLTLQRSKLVAMRSCPELEPGAFTILTRFYGKPVVPFGLLPPRPDGARGVSKNGKHDAIMQWLDAQPAKSVVYVALGSEAPMSADLLRELAHGLDLAGTRFLWAMRKPAGVDADSVLPAGFLGRTGERGLVTTRWAPQVSILAHAAVCAFLTHCGWGSVVEGLQFGHPLIMLPILGDQGPNARILEGRKLGVAVPRNDEDGSFDRGGVAGAVRAVVVEEEGKTFFANARKLQEIVADREREERCIDEFVQHLTSWNELKNNSDGQYP | 2.1 | 96.7 |  |  |
| S115N06 C2: UDP-glucoronosyl/UDP-glucosyl transferase family protein, Arabidopsis lyrata subsp. lyrata, SEQ ID 7 (protein, listed as Arabidopsis lyrata) MDDKKEEVMHIAMFPWLAMGHLLPFLRLSKLLAQKGHKISFISTPRNILRLPKLPSNLSSSITFVSFPLPSISGLPPSSESSMDVPYNKQQSLKAAFDLLQPPLTEFLRLSSPDWIIYDYASHWLPSIAKELGISKAFFSLFNAATLCFMGPSSSLIEESRSTPEDFTVVPPWVPFKSTIVFRYHEVSRYVEKTDEDVTGVSDSVRFGYTIDGSDAVFVRSCPEFEPEWFSLLQDLYRKPVFPIGFLPPVIEDDDDDTTWVRIKEWLDKQRVNSVVYVSLGTEASLRREELTELALGLEKSETPFFWVLRNEPQIPDGFEERVKGRGMVHVGWVPQVKILSHESVGGFLTHCGWNSVVEGIGFGKVPIFLPVLNEQGLNTRLLQGKGLGVEVLRDERDGSFGSDSVADSVRLVMIDDAGEEIREKVKLMKGLFGNMDENIRYVDELVGFMRNDESSQLKEEEEEDDCSDDQSSEVSSETDEKELNLDLKEEKRRISVYKSLSSEFDDYVANEKMG | 0.28 | 95.8 | 3.9 |  |
| S115N06 E1: hypothetical protein OsJ_04191, Oryza sativa Japonica Group, SEQ ID 6 (protein, listed as Oryza sativa) MHVVMLPWLAFGHILPFAEFAKRVARQGHRVTLFSTPRNTRRLIDVPPSLAGRIRVVDIPLPRVEHLPEHAEATIDLPSNDLRPYLRRAYDEAFSRELSRLLQETGPSRPDWVLADYAAYWAPAAASRHGVPCAFLSLFGAAALCFFGPAETLQGRGPYAKTEPAHLTAVPEYVPFPTTVAFRGNEARELFKPSLIPDESGVSESYRFSQSIEGCQLVAVRSNQEFEPEWLELLGELYQKPVIPIGMFPPPPPQDVAGHEETLRWLDRQEPNSVVYAAFGSEVKLTAEQLQRIALGLEASELPFIWAFRAPPDAGDGDGLPGGFKERVNGRGVVCRGWVPQVKFLAHASVGGFLTHAGWNSIAEGLANGVRLVLLPLMFEQGLNARQLAEKKVAVEVARDEDDGSFAANDIVDALRRVMVGEEGDEFGVKVKELAKVFGDDEVNDRYVRDFLKCLSEYKMQRQG | 0.14 | 92.8 | 7.0 |  |
